Test results from the supplement of paper PMC12764529.
± gives the half width of the 95% confidence interval.

Experiments:
[1] = folding stability dG unfold from chymotrypsin proteolysis; higher = more stable
Summary of the method: (§1)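 Only designs with AlphaFold2 dimer inter-PAE above 15 were retained; each was a mini-protein under 80 residues with no cysteine, in a PA-tagged cDNA display construct. After digestion with trypsin and chymotrypsin and sequencing, K50 was inferred by Bayesian fitting of counts, and unfolding free energy was derived per protease or combined against a sequence-predicted unfolded-state K50 and a shared folded-state K50.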

[2] = folding stability dG unfold from trypsin proteolysis; higher = more stable
Summary of the method: as §1

[3] = folding stability dG unfold (combined trypsin and chymotrypsin); higher = more stable
Summary of the method: as §1

Sequence	folding stability dG unfold [1]	folding stability dG unfold [2]	folding stability dG unfold [3]
SAGGSAGGSAGKVVLAKAKVTPPDGSEYEFDLAIEVPDDVVLVVGLHFDYPDQVDFVFEGSAGGSAGGSAGG [r11_781_TrMRF]	1.14 ± 0.017 kcal/mol	1.28 ± 0.03 kcal/mol	1.2 ± 0.072 kcal/mol
SAGGSAGGSAGSTVTLTVDPDTNVATLTAIIGGKPVTATLTFIPNTGKARLPDGTWIDISSAGGSAGGSAGG [r11_395_TrMRF]	1.03 ± 0.051 kcal/mol	1.43 ± 0.034 kcal/mol	1.28 ± 0.069 kcal/mol
SAGGSAGGSGDKDEVDPNKNISPIPPVKATIFPPDGTPRTVTFTSEEELKAYAEARGWTIEVPSAGGSAGGS [r12_244_JUSTAS]	0.231 ± 0.29 kcal/mol	0.000698 ± 0.12 kcal/mol	0.318 ± 0.23 kcal/mol
SAGGKWKPIGKFEFTLPDGVKVTVTVEENPPLELKITAEVEIYVPPPKPPVPPLGPEEVKKWLEENKSAGGS [r16_6_TrMRF]	1.86 ± 0.05 kcal/mol	1.87 ± 0.12 kcal/mol	1.8 ± 0.2 kcal/mol
SAGGSAGGSAGTIRIKMKDGKPMEFPLKGLPKEDLDDPEFLDWIKDWARDSGMKIDDIEISAGGSAGGSAGG [r11_467_TrROS]	1.09 ± 0.072 kcal/mol	-0.62 ± 0.22 kcal/mol	0.608 ± 0.14 kcal/mol
SAGEKEFEIVEVKVNKETNEVYFLVRDKEKNRLIKVHSNGTVEIYDLKDPGKKITINMSLEELLALLKKSAG [r5_491_TrROS_Hall]	4.26 ± 0.19 kcal/mol	2.49 ± 0.16 kcal/mol	4.08 ± 0.19 kcal/mol
SKKKKIKKITLTFTTSDGSTITIEIDADQTVTITLPDGSTITITFDKDTGILTITVTNKDGSKQEFKIELSA [r9_99_TrROS_Hall]	3.08 ± 0.051 kcal/mol	1.82 ± 0.075 kcal/mol	2.6 ± 0.11 kcal/mol
SAGGSAGGMVERPITLRVRVKTPEEVKKLVEELLKPTDAKADVVEEELEDGTVLVTLTIYVPEESAGGSAGG [r6_719_TrMRF]	1.58 ± 0.038 kcal/mol	1.67 ± 0.019 kcal/mol	1.62 ± 0.042 kcal/mol
SAGGSAGGNTIMIPLPPNMPLDEVAKELMDAFPDYPIKDVEYERYGDRPMVTVRFPDGWKITIWSAGGSAGG [r6_492_TrROS]	0.818 ± 0.22 kcal/mol	0.543 ± 0.034 kcal/mol	0.838 ± 0.12 kcal/mol
SAGGSAGGSAGGELKAKFETFPSPYGKVILAEAEFEEPNLLAAIVIDEDGVPHLLVVSPDSAGGSAGGSAGG [r7_187_TrMRF]	0.858 ± 0.076 kcal/mol	1.13 ± 0.064 kcal/mol	0.952 ± 0.12 kcal/mol
SDEGYKVEINPMIHRTDGKVTIMFMIQIKPGLDDLKIKIKLRLPDGKPMKVDYQRNPDNGFIMVSATMPPSA [r9_159_TrROS]	4.21 ± 0.066 kcal/mol	2.91 ± 0.1 kcal/mol	3.53 ± 0.14 kcal/mol
SAGGSAGGSAGGLSLKVKNKKTGKWYDIESIEVKKDPSSGKPVIKIKTSGPKEVEKELVSAGGSAGGSAGGS [r10_663_TrMRF]	-0.178 ± 0.22 kcal/mol	-0.894 ± 0.34 kcal/mol	-0.34 ± 0.4 kcal/mol
SAGGSAGGSAGGSNDNVVPITILFVDPGKDDRLYLREIRLRIYENGDIEAEVKVYELPLSAGGSAGGSAGGS [r10_598_TrMRF]	4.12 ± 0.075 kcal/mol	2.87 ± 0.11 kcal/mol	3.68 ± 0.1 kcal/mol
KIEIVEIKKENGKITIKVKNPIPNAKLIIYLFNPKGEIVSAKTHPGPEVELEIEVPENESFSVLVKLFPPKS [r1_382_TrMRF]	4.24 ± 0.083 kcal/mol	3.35 ± 0.12 kcal/mol	3.99 ± 0.14 kcal/mol
SAGGESYPFIGRNPETNALIEVTVTKLESGEYLVNATITNPNGETVEFPFTFPANSLTPESEIDVTITSAGG [r13_959_TrMRF]	1.21 ± 0.074 kcal/mol	1.65 ± 0.051 kcal/mol	1.44 ± 0.054 kcal/mol
SAGNVIVVVNPETGEVVVVSFDELVRIVAVSSKTLVPEVRDVPRDKVLDFIKEAFPGPVEILEIKPAPVSAG [r5_519_TrMRF]	1.22 ± 0.05 kcal/mol	1.02 ± 0.043 kcal/mol	1.19 ± 0.053 kcal/mol
SAGGSAGGSEIPDIEITIDSIEFFPDGTVRITATVRFPGGGTAKITLTLPAPPAEYEPPSDLLSAGGSAGGS [r12_558_TrMRF]	1.12 ± 0.25 kcal/mol	1.49 ± 0.2 kcal/mol	1.39 ± 0.5 kcal/mol
